Assay results: the nanobody polyreactivity screen of Harvey et al. (2022)

Experiment: yeast display, Sf9 membrane polyspecificity reagent, FACS + sequencing; frameworks hold sequencing errors
In short: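 Using colony PCR, genes from sorted yeast display clones were amplified, then sequenced on MiSeq at 2 × 250 and filtered by CDR length. The clones had been stained with 10% biotinylated, detergent-solubilized Sf9 membrane reagent for 1 hour at 4 °C and sorted by FACS into low and high (top ~1%) gates on anti-HA and streptavidin fluorescence. Polyreactivity labels come from the gate of origin.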

Sequence	polyreactivity (PSR sort gate)
QVQLVESGGGLVQAGGSLRLSCAASGSILTGNAMGWYRPAPGKERELVAAISAGGTRTYYADSVKGRFTISRDNAKNTVYLQMNSLKPEDTAVYYCAADSSKRIGYDYWGQGTQVTVSS	high polyreactivity
QVQLVESGGGLVQAGGSLRLSCAASGSILTLYSMGWYRQAPGKERELVAAISSTGGRTYYADSVKGRFTISRDNAKNTVYVQMNSLKPEDTAFYYCAARGWGGLRSYGYYYWGQGTQVTVSS	high polyreactivity
QVQLVESGGGLVQAGGSLRLSCAASGSILVEYAMGWYRQAPGKERELVAAISSNGGSTYYADSVKGRFTISRDNAKNTVYLQMNSLKPEDTAVYYCATRQSWSDYYLNVDYDYWGQGTKVTVSS	low polyreactivity
QVQLVESGGGLVQAGGSLRLSCAASGSILVSYAMGWYRPAPGKERELVAAITSGGRTKYADSVKGRFTISRDNAKNTVYLQMNSLKPEDTAVYYCAADDPLSYQFDYWGQGTQVTVSS	high polyreactivity
QVQLVESGGGLVQAGGSLRLSCAASGSILYRYAMGWSRPAPGKERELDAAISYNGGRTYYADSVKGRFSISRDNAKNTVYLQMNSLKPEDTAVYYCNAAGRDDAYDYWGQGTQVTVSS	high polyreactivity
QVQLVESGGGLVQAGGSLRLSCAASGSILYRYAMGWYRQAPGKERELVAGISKTGSSTYYADSVKGRFTISRDNAKNTVYLQMNSLKPEDTAVYYCNVRHGYSGKDYRYDYWGQGTQVTVSS	low polyreactivity
QVQLVESGGGLVQAGGSLRLSCAASGSILYVNAMGWYRQAPGKERELVASITDGGNTYYADSVKGRFTISRDNAKNTVYLQMNSLKPEDTAVYYCNAVGRIKVDYGLEYWGQGTQVTVSS	low polyreactivity
QVQLVESGGGLVQAGGSLRLSCAASGSILYVYAMGWYRQAPGKERELVAVITSGGSTNYADSVKGRFTISRDNAKNTVYLQMNSLKPEDTAVYYCAADPYSVYGGDYWGQGTQVTLSS	low polyreactivity
QVQLVESGGGLVQAGGSLRLSCAASGSILYYYAMGWYRQAPVKERELVATITSGGTTNYADSVKGRFTISRDNAKNTVYLQMISLKPEDTAVYYCAADWAWDTKSAPAYPRAYDYWGPGTQVTVSS	low polyreactivity
QVQLVESGGGLVQAGGSLRLSCAASGSIRYYAMGWYRQAPVKEREFVAAISRRGSSTNYADSVKGRFTISRDNAKNTVYLQMNSLKPDDTAVYYCARGLDVISYGYDYWGQGTQVTVSS	high polyreactivity
QVQLVESGGGLVQAGGSLRLSCAASGSIRYYYVMGWYRQAPGKERELVAAITSGGSTYYADSVKGRFTISRDNAKNTVYLQMNSLKPEDTAVYYCNARTRSLTGSRFNYWGQVTQVTVSS	high polyreactivity
QVQLVESGGGLVQAGGSLRLSCAASGSISAGNAMGWYRQAPGKERELVAAITTSGGSTYYADSVKGRFTISRDNAKNTVYLQMNSLKPEDTAVYYCNVDPRKRSYDYWGQGTQVTVSS	high polyreactivity
QVQLVESGGGLVQAGGSLRLSCAASGSISDSNAMGSYRQAPGKERELVAAIDDSGGSTYYADSVKGRFTISRDNAKNTVYLQMNSLKPEDTAVYYCAKTKTQYLTSEIRFVYWGQGTQVTVSS	low polyreactivity
QVQLVESGGGLVQAGGSLRLSCAASGSISDTYGMGWYRQAPGKERELVASITWSSGSTDYADSVKGRFTISRDNAKNTVYLQMNSLKPAETAVYYCATYEPFYSFIFRGIYDYWGQGTQVTVSS	low polyreactivity
QVQLVESGGGLVQAGGSLRLSCAASGSISFYAMGWYRQAPGKERELVAAITTSGGRTYYADSVKGRFTISRDNAKNTVYLQMNSLKPEDTAVYYCNVASKGRYARYAAEYGSWGQGTQVTVSS	high polyreactivity
QVQLVESGGGLVQAGGSLRLSCAASGSISGLYAMGWYRQAPGKERELVARIRWRGDSTYYADSVKGRFTISRDNAKNTVYLQMNSLNPEDTAVYYCAASAYSGKVNKYNYWGQGTQVTVSS	high polyreactivity
QVQLVESGGGLVQAGGSLRLSCAASGSISGLYAMGWYRQAPGKESELVAAISFSGGSTYYADSVKGRFTISRDNAKNTVYFQMNSLKPEDTAVYYCAADGQYGGVPNTSEWTFDYWGQGTQVTVSS	low polyreactivity
QVQLVESGGGLVQAGGSLRLSCAASGSISGRYAMGWYRQAPGKERELVAAISWIGGSTYYADSVKGRFTISRDNAKNTVYLQMNSLKPEDTAVYYCNVTIDTRTHPLLVVFYGYDYWGQGTQVTVSS	low polyreactivity
QVQLVESGGGLVQAGGSLRLSCAASGSISGSNDMGWYRQAPGKERELVAAISGGSSTNYADSVKGRFTISRDNAKNTVYFQMNSLKPEDTAVYYCAARYRWFFFYGPHSPGYNYWGQGTQVTVSS	high polyreactivity
QVQLVESGGGLVQAGGSLRLSCAASGSISGVYAMGWYRQAAGKDRALVAASSGGSGRTYYADSVKGRFTISRDNAKNTVYLQMISLKPEDTAVYYCAKTVLYSSYRKYDYWGQGSQVTVSS	high polyreactivity
QVQLVESGGGLVQAGGSLRLSCAASGSISGYNAMGWYRPAPGKERELVAVITTDGSTNYADSVKGRFTISRDNAKNTVYLQMNSLKPEDTAVYYCNTDDGWRLLWEYDYWGQGTQVTVSS	low polyreactivity
QVQLVESGGGLVQAGGSLRLSCAASGSISGYYAMGWYRQAPGKERELVASIRYTGARTYYADSVKGRFTISRDNAKNTVYLQMNSLKPEDTAVYYCAADFRSVFSKYSYYLYFDFDYWGQGTQVTVSS	low polyreactivity

Sequence	polyreactivity (PSR sort gate)
QVQLVESGGGLVQAGGSLRLSCAASGSISKINAMGWYRQAPGKERELVAAINTGDSTYYADSVKGRFTISRDNAKNTVYLQMNSLKPEDTAVYYCATVVYTWFLAEEDDYCGQGTQVTVSS	low polyreactivity
QVQLVESGGGLVQAGGSLRLSCAASGSISPQNVMGWYRQAPGKERELVAAITWTGTSTYADSVKGRFTISRDNAKNTVYLQMNSLKPEDTAVYYCAARYYAPRWFRYDYWGQGTQVTVSS	low polyreactivity
QVQLVESGGGLVQAGGSLRLSCAASGSISPQNVMGWYTQAPGKERELVAAITGGGSTNYADSVKGRFTISRDNAKNTVFLLMNSLKPEDTAVYYCNADYFQDRLDYWGQGTQVTVSS	low polyreactivity
QVQLVESGGGLVQAGGSLRLSCAASGSISQTYAMGWYRQAPGKERELVAAISSSGASTYYADSVKGRFTISRDNAKNTVYLQMNSLKPEDTAVYYCAVVPSSTYHSYDYWGQGTQVTVSS	high polyreactivity
QVQLVESGGGLVQAGGSLRLSCAASGSISRFYAMGWYRQAPGKERELVAAISWSGGRPYYADSVKGRFTISRDKAKNTVYLQMNSLKPEDTAVYYCNAYRRYNDEDYWGQGTQVTVSS	high polyreactivity
QVQLVESGGGLVQAGGSLRLSCAASGSISRGNVMGWYRQAPGKERELVAGITRGGRTNYADSVKGRFTISRDNAKNTVYLQMNSLKPEDTAVYYCATYTYYVPWRQRGGYPDFDYWGQGTQVTVSS	high polyreactivity
QVQLVESGGGLVQAGGSLRLSCAASGSISRRYVMGWYRQAPGKERELVAAISTSGGSTYYADSVKGRFTISRDNAKNTVYLQMNSLKPEDTAVYYCAADLPVQGGFDYWGQGTQVTVSS	low polyreactivity
QVQLVESGGGLVQAGGSLRLSCAASGSISSKNAMGWYRQAPGKEREFGAVISGTGGSTYYADSVKGRFTISRDNAKNTVYLQMNSLKPEDTAVYYCAAAASSIVSYGYTWTYGYWGQGTQVTVSS	low polyreactivity
QVQLVESGGGLVQAGGSLRLSCAASGSISSKNAMGWYRQAPGKEREFVAVISGTGGSTYYADSVKGRFTISRDNAKNTVYLQMNSLKPEDTAVYYCAAAASSIVSYGYTWTYGYWGQGTQVTVSS	low polyreactivity
QVQLVESGGGLVQAGGSLRLSCAASGSISSQYGMGWYRQAPGKERELVATIRDGGRTNYADSVKGRFTISRDNAKNTVYLQMNCLKPEDTAVYYCAALYWYYYTWPLYDYWGQGSQVTVSS	low polyreactivity
QVQLVESGGGLVQAGGSLRLSCAASGSISVDNTMGWYRQAPGKERELVAAISRSGGTTYYADSVKGRFTISRDNAKNTVYLQMNSLKPEDTAVYYCAKDTLRYRWRSYDYYPEMNYWGQGTQVTVSS	low polyreactivity
QVQLVESGGGLVQAGGSLRLSCAASGSISVPNAMGWYRQAPGKERELVAGITSGDSTHYADSVKGRFSISRDNAKNTVYIQMISLKPEDTAVYYCAAKVPEPPSLDESDYWGQGTQVTVSA	low polyreactivity
QVQLVESGGGLVQAGGSLRLSCAASGSISVRNVMGWYRQAPGKERELVATIRRTGGSTSYADSVKGRFTISRDNAKNTVYLQMNSLKPEDTAVYYCAAVGYTTYRRYDYWGQGTQVTVSS	low polyreactivity
QVQLVESGGGLVQAGGSLRLSCAASGSISVVNMGWYRQPPRKERQFVASITSSGSTTYADSVKGRFTISRDNAKNTVYLQMNSLKPEDTAVYYCAADVGTDYTYQHPAGAAYDYWGEGTQVTVSS	low polyreactivity
QVQLVESGGGLVQAGGSLRLSCAASGSISVVYDMGWYRQAPGTERELVAAIDWSGGSTYYADSVKGRFTISRDNAKNTVYLQMNSLKPEDTAVYYCAADDKVRYYWGQGTQVTVSS	low polyreactivity
QVQLVESGGGLVQAGGSLRLSCAASGSISVYNAMGWYRPAPGKERELVAAISWSGGRTSYADSVKGRFTISRDHAKNTVYLQMNSLKPEDTAVYYCAADELSVLWDEDYWGQVTQVTVSS	low polyreactivity
QVQLVESGGGLVQAGGSLRLSCAASGSISWAYVMGWYRQAPGKERELVAAISSGTSTYYADSVKGRFTLSRDNAKKTVYLQMNSLKPEDTAVYYCAAYYYSYPTNGGYGYWGQGTQVTVSS	low polyreactivity
QVQLVESGGGLVQAGGSLRLSCAASGSISWYYAMGWYRQAPGKEWEGVAAISDSGGDTYYADSVKGRFTISRDNAKNTVYLQMNSLKPEDTAVYYCAAQYRGSYRTTYDYWGQGTQVTVSS	low polyreactivity
QVQLVESGGGLVQAGGSLRLSCAASGSISYEFAMGWYRQAPGKERELVASIDSDGAGTYYADSVKGRFTISRDNAKNTVYLQMNSLKPEDTAVYYGNAEWYYPYYYSRMDYWGQGTQVTVSS	low polyreactivity
QVQLVESGGGLVQAGGSLRLSCAASGSISYEYAMGWYRPAPGKERELVASIDSDGAGTYYADSVKGRFTISRDNAKNTDYLQMNSLKPEDTAVYYCNAEWYYPYYYSRMDYWGQGTQVTVSS	low polyreactivity
QVQLVESGGGLVQAGGSLRLSCAASGSISYFNDMGWYRQAPGKERELVAAIRDSGGITYADSVKGRFTISRDNAKYTVYLQMNSLKPEDTAVYYCATYGNEIYDYWGQGTQVTVSS	low polyreactivity
